T1: human formyl peptide receptor like-1 (FPRL-1) receptor (human, UniProt P25090 1-351)
T1 sequence (looked up): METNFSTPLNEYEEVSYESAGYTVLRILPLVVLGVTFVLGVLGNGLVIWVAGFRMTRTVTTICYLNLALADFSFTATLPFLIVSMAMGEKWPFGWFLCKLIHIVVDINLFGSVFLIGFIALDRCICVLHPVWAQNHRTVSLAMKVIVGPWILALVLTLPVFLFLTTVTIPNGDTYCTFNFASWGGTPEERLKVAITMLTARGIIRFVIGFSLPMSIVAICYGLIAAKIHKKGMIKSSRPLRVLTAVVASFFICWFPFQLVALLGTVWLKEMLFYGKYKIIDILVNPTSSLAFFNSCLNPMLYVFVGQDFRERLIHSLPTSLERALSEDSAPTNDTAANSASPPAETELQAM


Key:
C5a receptor (human) = C5a receptor (human) (UniProt P21730); experiment: cell-based or functional assay
Chain of C5a receptor (human) (P21730 whole entry): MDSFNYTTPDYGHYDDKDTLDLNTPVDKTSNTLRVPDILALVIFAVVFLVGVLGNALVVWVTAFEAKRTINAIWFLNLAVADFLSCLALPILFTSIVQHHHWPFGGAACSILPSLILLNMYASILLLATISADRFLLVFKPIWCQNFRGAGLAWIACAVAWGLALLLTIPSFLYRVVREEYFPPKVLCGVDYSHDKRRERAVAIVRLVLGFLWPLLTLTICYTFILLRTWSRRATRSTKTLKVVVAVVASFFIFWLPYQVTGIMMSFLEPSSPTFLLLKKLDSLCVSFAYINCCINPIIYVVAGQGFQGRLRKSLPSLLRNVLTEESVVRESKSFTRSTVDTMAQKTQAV

[1] = target: T1, human formyl peptide receptor like-1 …; experiment: cell-based or functional assay

fold increase in lacZ expression (fus1:lacZ, autocrine yeast) (C5a receptor (human)) [fold] | fold stimulation of β-galactosidase (fus1-lacZ) over background [1] [fold] | Molecule
8 to 12 | – | native C5a ligand (from UniProt P01031 678-751)
– | 8 | SLLWLTCRPWEAM [peptide A5, Ser-Leu-Leu-Trp-Leu-Thr-Cys-Arg-Pro-Trp-Glu-Ala-Met]

From patent US20030166143A1 (CADUS TECHNOLOGIES, published 2003)
